Substrate in experiment [1]: F protein of respiratory syncytial virus (RSV-Long strain), on infectious virus (respiratory syncytial virus (RSV-Long strain)) (UniProt P12568)
Description: cell-based or functional assay.

The target of experiment [2] is F protein of respiratory syncytial virus (RSV-Long strain), on infectious virus (respiratory syncytial virus (RSV-Long …, UniProt P12568 26-574)). Description: cell-based or functional assay.
Experiment [3] has as its target T1, C-terminal truncated RSV F protein, secreted from recombinant baculovirus-infected cells (respiratory syncytial virus (strain not …, UniProt P03420 26-526)).
T1 construct: also called F antigen of RSV
Description: SPR (BIAcore), F protein immobilized, Fab injected. On the technique in general: In SPR one partner is held on a chip, and binding of the other changes the refractive index at the surface.
Description: A typical kinetic study involved the injection of 35 ml of Mab at varying concentrations (25-300 nM) in PBS buffer containing 0.05% Tween-20 (PBS/Tween). The flow rate was maintained at 5 ml/min, giving a 7 min binding phase. Following the injection of Mab, the flow was exchanged with PBS/Tween buffer for 30 min for determining the rate of dissociation. The sensor chip was regenerated between cycles with a 2 min pulse of 10 mM HCI.
More specifically, for measurement of kassoc (or kₒₙ), F protein was directly immobilized by the EDC/NHS method (EDC=N-ethyl-N′-[3-diethylaminopropyl)-carbodiimide). Briefly, 4 μg/ml of F protein in 10 mM NaOAc, pH 4.0 was prepared and about a 30 μl injection gives about 500 RU (response units) of immobilized F protein under the above referenced conditions. The blank flow cell (VnR immobilized-CM dextran surface) was subtracted for kinetic analysis. The column could be regenerated using 100 mM HCI (with 72 seconds of contact time being required for full regeneration). […] The dissociation phase was analyzed from 230 seconds (30 seconds after start of the dissociation phase) to 900 seconds. Kinetics were analyzed by 1:1 Langmuir fitting (global fitting). Measurements were done in HBS-EP buffer (10 mM HEPES, pH 7.4, 150 mM NaCl, 3 mM EDTA, 0.005% (v/v) Surfactant P20.
For measuring k_{off (or k}dissoc) the following conditions were employed. Briefly, 4100 RU of F protein were immobilized (as above) with CM-dextran used as the blank. Here, 3000 RU of Fab was bound (with dissociated Fab high enough to offset machine fluctuation). […] The dissociation phase was 6-15 hours at a flow rate of 5 μl/min.

Experimental findings from patent US20020098189A1 (AstraZeneca / MedImmune, published 2002) are described below.

T1 sequence (P03420 26-526): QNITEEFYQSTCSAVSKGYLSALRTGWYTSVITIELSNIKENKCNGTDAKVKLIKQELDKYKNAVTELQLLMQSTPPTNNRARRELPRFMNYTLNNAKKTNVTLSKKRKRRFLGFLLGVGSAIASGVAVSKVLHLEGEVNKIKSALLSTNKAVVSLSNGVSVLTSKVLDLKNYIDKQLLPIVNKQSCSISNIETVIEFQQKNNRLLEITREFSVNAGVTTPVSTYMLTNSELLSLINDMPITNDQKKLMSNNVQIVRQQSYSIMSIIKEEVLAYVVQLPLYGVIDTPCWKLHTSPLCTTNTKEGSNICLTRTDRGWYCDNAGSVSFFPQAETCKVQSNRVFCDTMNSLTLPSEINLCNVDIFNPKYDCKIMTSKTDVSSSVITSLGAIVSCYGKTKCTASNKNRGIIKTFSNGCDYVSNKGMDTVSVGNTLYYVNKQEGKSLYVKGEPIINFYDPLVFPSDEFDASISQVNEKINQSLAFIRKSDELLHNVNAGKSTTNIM
Sequence of F protein of respiratory syncytial virus (RSV-Long strain), on infectious virus (respiratory syncytial virus (RSV-Long strain)) (P12568 26-574): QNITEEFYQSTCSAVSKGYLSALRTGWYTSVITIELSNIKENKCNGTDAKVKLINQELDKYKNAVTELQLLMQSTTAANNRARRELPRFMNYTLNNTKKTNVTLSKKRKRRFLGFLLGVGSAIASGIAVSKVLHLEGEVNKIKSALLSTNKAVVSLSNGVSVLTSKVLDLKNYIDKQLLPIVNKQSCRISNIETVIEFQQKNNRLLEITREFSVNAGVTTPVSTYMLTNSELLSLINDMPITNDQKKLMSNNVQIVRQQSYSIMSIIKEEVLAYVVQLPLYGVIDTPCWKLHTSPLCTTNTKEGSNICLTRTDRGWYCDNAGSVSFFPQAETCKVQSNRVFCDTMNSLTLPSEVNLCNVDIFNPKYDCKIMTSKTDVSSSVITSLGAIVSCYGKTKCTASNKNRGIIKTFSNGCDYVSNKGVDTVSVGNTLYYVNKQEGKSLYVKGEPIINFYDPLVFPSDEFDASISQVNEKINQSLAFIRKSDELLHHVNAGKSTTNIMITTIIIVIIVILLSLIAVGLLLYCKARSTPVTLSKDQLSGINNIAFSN

B1: Clone 24 (IgG) (antibody, V domains shown)
VH: QVTLRESGPALVKPTQTLTLTCTFSGFSLSTAGMSVGWIRQPPGKALEWLADIWWDGKKHYNPSLKDRLTISKDTSKNQVVLKVTNMDPADTATYYCARDMIFNWYFDVWGQGTTVTVSS
VL: DIQMTQSPSTLSASVGDRVTITCSLSSRVGYMHWYQQKPGKAPKLLIYDTFKLSSGVPSRFSGSGSGTEFTLTISSLQPDDFATYYCFQGSGYPFTFGGGTKVEIKR
For B1, in experiment [1], the Mean IC50 µg/ml, RSV microneutralization came to 0.0625 µg/mL and the Mean IC50 (Control) µg/ml, RSV microneutralization stood at 0.0645 µg/mL.

B2: Clone 29 (Fab) (Fab, V domains shown)
VH: QVTLRESGPALVKPTQTLTLTCTFSGFSLSTAGMSVGWIRQPPGKALEWLADIWWDDKKHYNPSLKDRLTISKDTSKNQVVLKVTNMDPADTATYYCARDMIFNFYFDVWGQGTTVTVSS
VL: DIQMTQSPSTLSASVGDRVTITCSASSRVGYMHWYQQKPGKAPKLLIYDTFFLDSGVPSRFSGSGSGTEFTLTISSLQPDDFATYYCFQGSGYPFTFGGGTKVEIK
As for B2, in experiment [1], the Mean IC50 µg/ml, RSV microneutralization is 0.0414 µg/mL and the Mean IC50 (Control) µg/ml, RSV microneutralization is 0.0411 µg/mL.

B3: Clone 18 (IgG) (antibody, V domains shown)
VH: QVTLRESGPALVKPTQTLTLTCTFSGFSLSTAGMSVGWIRQPPGKALEWLADIWWDGKKSYNPSLKDRLTISKDTSKNQVVLKVTNMDPADTATYYCARDMIFNFYFDVWGQGTTVTVSS
VL: DIQMTQSPSTLSASVGDRVTITCLPSSRVGYMHWYQQKPGKAPKLLIYDTMYQSSGVPSRFSGSGSGTEFTLTISSLQPDDFATYYCFQGSGYPFTFGGGTKVEIKR
For B3, in experiment [1], the Mean IC50 µg/ml, RSV microneutralization amounted to 0.0342 µg/mL and the Mean IC50 (Control) µg/ml, RSV microneutralization came out at 0.0354 µg/mL.

B4: Clone 20 (IgG) (antibody, V domains shown)
VH: QVTLRESGPALVKPTQTLTLTCTFSGFSLSTAGMSVGWIRQPPGKALEWLADIWWDDKKSYNPSLKDRLTISKDTSKNQVVLKVTNMDPADTATYYCARDMIFNWYFDVWGQGTTVTVSS
VL: DIQMTQSPSTLSASVGDRVTITCSPSSRVGYMHWYQQKPGKAPKLLIYDTRYQSSGVPSRFSGSGSGTEFTLTISSLQPDDFATYYCFQGSGYPFTFGGGTKVEIKR
B4: in experiment [1], the Mean IC50 µg/ml, RSV microneutralization was 0.0337 µg/mL and the Mean IC50 (Control) µg/ml, RSV microneutralization stood at 0.0383 µg/mL.

B5: Clone 25 (IgG) (antibody, V domains shown)
VH: QVTLRESGPALVKPTQTLTLTCTFSGFSLSTAGMSVGWIRQPPGKALEWLADIWWDGKKDYNPSLKDRLTISKDTSKNQVVLKVTNMDPADTATYYCARDMIFNFYFDVWGQGTTVTVSS
VL: DIQMTQSPSTLSASVGDRVTITCSASSRVGYMHWYQQKPGKAPKLLIYDTFKLSSGVPSRFSGSGSGTEFTLTISSLQPDDFATYYCFQGSGYPFTFGGGTKVEIKR
In the case of B5, in experiment [1], the Mean IC50 µg/ml, RSV microneutralization is 0.0357 µg/mL and the Mean IC50 (Control) µg/ml, RSV microneutralization was determined as 0.0354 µg/mL.

B6: Clone 26 (IgG) (antibody, V domains shown)
VH: QVTLRESGPALVKPTQTLTLTCTFSGFSLSTAGMSVGWIRQPPGKALEWLADIWWDGKKSYNPSLKDRLTISKDTSKNQVVLKVTNMDPADTATYYCARDMIFNFYFDVWGQGTTVTVSS
VL: DIQMTQSPSTLSASVGDRVTITCSLSSRVGYMHWYQQKPGKAPKLLIYDTMYQSSGVPSRFSGSGSGTEFTLTISSLQPDDFATYYCFQGSGYPFTFGGGTKVEIKR
For the molecule B6, in experiment [1], the Mean IC50 µg/ml, RSV microneutralization was 0.0376 µg/mL and the Mean IC50 (Control) µg/ml, RSV microneutralization came out at 0.0375 µg/mL.

B7: Clone 27 (Fab) (Fab, V domains shown)
VH: QVTLRESGPALVKPTQTLTLTCTFSGFSLSTAGMSVGWIRQPPGKALEWLADIWWDGKKSYNPSLKSRLTISKDTSKNQVVLKVTNMDPADTATYYCARDMIFNFYFDVWGQGTTVTVSS
VL: DIQMTQSPSTLSASVGDRVTITCLPSSRVGYMHWYQQKPGKAPKLLIYDTMYQSSGVPSRFSGSGSGTEFTLTISSLQPDDFATYYCFQGSGYPFTFGGGTKVEIK
With B7, in experiment [1], the Mean IC50 µg/ml, RSV microneutralization is 0.0179 µg/mL and the Mean IC50 (Control) µg/ml, RSV microneutralization came to 0.0171 µg/mL.

B8: Clone 22 (IgG) (antibody, V domains shown)
VH: QVTLRESGPALVKPTQTLTLTCTFSGFSLSTPGMSVGWIRQPPGKALEWLADIWWDDKKHYNPSLKDRLTISKDTSKNQVVLKVTNMDPADTATYYCARDMIFNFYFDVWGQGTTVTVSS
VL: DIQMTQSPSTLSASVGDRVTITCSLSSRVGYMHWYQQKPGKAPKLLIYDTRGLPSGVPSRFSGSGSGTEFTLTISSLQPDDFATYYCFQGSGYPFTFGGGTKVEIKR
Regarding B8, in experiment [1], the Mean IC50 µg/ml, RSV microneutralization was 0.0242 µg/mL and the Mean IC50 (Control) µg/ml, RSV microneutralization worked out at 0.0235 µg/mL.

B9: Clone 28 (Fab) (Fab, V domains shown)
VH: QVTLRESGPALVKPTQTLTLTCTFSGFSLSTAGMSVGWIRQPPGKALEWLADIWWDDKKSYNPSLKDRLTISKDTSKNQVVLKVTNMDPADTATYYCARDMIFNWYFDVWGQGTTVTVSS
VL: DIQMTQSPSTLSASVGDRVTITCSPSSRVGYMHWYQQKPGKAPKLLIYDTRYQSSGVPSRFSGSGSGTEFTLTISSLQPDDFATYYCFQGSGYPFTFGGGTKVEIK
B9: in experiment [1], the Mean IC50 µg/ml, RSV microneutralization worked out at 0.177 µg/mL and the Mean IC50 (Control) µg/ml, RSV microneutralization turned out to be 0.157 µg/mL.

B10: Clone 19 (IgG) (antibody, V domains shown)
VH: QVTLRESGPALVKPTQTLTLTCTFSGFSLSTAGMSVGWIRQPPGKALEWLADIWWDDKKHYNPSLKDRLTISKDTSKNQVVLKVTNMDPADTATYYCARDMIFNFYFDVWGQGTTVTVSS
VL: DIQMTQSPSTLSASVGDRVTITCSASSRVGYMHWYQQKPGKAPKLLIYDTFFLDSGVPSRFSGSGSGTEFTLTISSLQPDDFATYYCFQGSGYPFTFGGGTKVEIKR
Take B10: in experiment [1], the Mean IC50 µg/ml, RSV microneutralization was found to be 0.0171 µg/mL and the Mean IC50 (Control) µg/ml, RSV microneutralization is 0.0154 µg/mL.

B11: Reference clone (Fab fragment with the sequences of FIG. 2 and the CDRs of Table 1) (Fab, V domains shown)
VH: QVTLRESGPALVKPTQTLTLTCTFSGFSLSTSGMSVGWIRQPPGKALEWLADIWWDDKKDYNPSLKSRLTISKDTSKNQVVLKVTNMDPADTATYYCARSMITNWYFDVWGQGTTVTVSS
VL: DIQMTQSPSTLSASVGDRVTITCSASSSVGYMHWYQQKPGKAPKLLIYDTSKLASGVPSRFSGSGSGTEFTLTISSLQPDDFATYYCFQGSGYPFTFGGGTKVEIK
notes: also called basic structure
Usually koff stands for the rate constant with which the complex falls apart. The kon is the rate constant with which the complex forms. Regarding B11, in experiment [2], the “EC50 (nM), RSV microneutralization” value amounted to 3.52 nM. In experiment [3], the koff was 0.00065 s⁻¹ and the kon worked out at 185000 M⁻¹ s⁻¹.

B12: Clone 23 (IgG) (antibody, V domains shown)
VH: QVTLRESGPALVKPTQTLTLTCTFSGFSLSTPGMSVGWIRQPPGKALEWLADIWWDGKKHYNPSLKDRLTISKDTSKNQVVLKVTNMDPADTATYYCARDMIFNWYFDVWGQGTTVTVSS
VL: DIQMTQSPSTLSASVGDRVTITCSPSSRVGYMHWYQQKPGKAPKLLIYDTMRLASGVPSRFSGSGSGTEFTLTISSLQPDDFATYYCFQGSGYPFTFGGGTKVEIKR
On to B12, for which, in experiment [1], the Mean IC50 µg/ml, RSV microneutralization amounted to 0.0217 µg/mL and the Mean IC50 (Control) µg/ml, RSV microneutralization was 0.0289 µg/mL.

B13: Clone 21 (IgG) (antibody, V domains shown)
VH: QVTLRESGPALVKPTQTLTLTCTFSGFSLSTPGMSVGWIRQPPGKALEWLADIWWDDKKHYNPSLKDRLTISKDTSKNQVVLKVTNMDPADTATYYCARDMIFNFYFDVWGQGTTVTVSS
VL: DIQMTQSPSTLSASVGDRVTITCSLSSRVGYMHWYQQKPGKAPKLLIYDTFYLSSGVPSRFSGSGSGTEFTLTISSLQPDDFATYYCFQGSGYPFTFGGGTKVEIKR
For B13, in experiment [1], the Mean IC50 µg/ml, RSV microneutralization amounted to 0.0231 µg/mL and the Mean IC50 (Control) µg/ml, RSV microneutralization was 0.0223 µg/mL.

B14: Clone 5 (Fab) (Fab, V domains shown)
VH: QVTLRESGPALVKPTQTLTLTCTFSGFSLSTAGMSVGWIRQPPGKALEWLADIWWDDKKDYNPSLKSRLTISKDTSKNQVVLKVTNMDPADTATYYCARDMITNFYFDVWGQGTTVTVSS
VL: DIQMTQSPSTLSASVGDRVTITCSASSSVGYMHWYQQKPGKAPKLLIYDTFKLASGVPSRFSGSGSGTEFTLTISSLQPDDFATYYCFQGSGYPFTFGGGTKVEIK
Take B14: the “EC50 (nM), RSV microneutralization” value in experiment [2] turned out to be 2.61 nM. Further, in experiment [3], the koff came to 0.000306 s⁻¹ and the kon stood at 416000 M⁻¹ s⁻¹.

B15: Clone 2 (Fab) (Fab, V domains shown)
VH: QVTLRESGPALVKPTQTLTLTCTFSGFSLSTAGMSVGWIRQPPGKALEWLADIWWDDKKDYNPSLKSRLTISKDTSKNQVVLKVTNMDPADTATYYCARDMIFNWYFDVWGQGTTVTVSS
VL: DIQMTQSPSTLSASVGDRVTITCSASSSVGYMHWYQQKPGKAPKLLIYDTFKLASGVPSRFSGSGSGTEFTLTISSLQPDDFATYYCFQGSGYPFTFGGGTKVEIK
On to B15, for which, in experiment [2], the “EC50 (nM), RSV microneutralization” value was 5.05 nM. In experiment [3], the koff was 0.000422 s⁻¹ and the kon turned out to be 531000 M⁻¹ s⁻¹.

B16: Clone 3 (Fab) (Fab, V domains shown)
VH: QVTLRESGPALVKPTQTLTLTCTFSGFSLSTAGMSVGWIRQPPGKALEWLADIWWDDKKDYNPSLKSRLTISKDTSKNQVVLKVTNMDPADTATYYCARDMIFNWYFDVWGQGTTVTVSS
VL: DIQMTQSPSTLSASVGDRVTITCSASSSVGYMHWYQQKPGKAPKLLIYDTYKQTSGVPSRFSGSGSGTEFTLTISSLQPDDFATYYCFQGSGYPFTFGGGTKVEIK
B16: in experiment [2], the “EC50 (nM), RSV microneutralization” value stood at 4.7 nM. Further, in experiment [3], the koff turned out to be 0.000422 s⁻¹ and the kon worked out at 605000 M⁻¹ s⁻¹.

B17: Clone 1 (Fab) (Fab, V domains shown)
VH: QVTLRESGPALVKPTQTLTLTCTFSGFSLSTAGMSVGWIRQPPGKALEWLADIWWDDKKDYNPSLKSRLTISKDTSKNQVVLKVTNMDPADTATYYCARDMITNFYFDVWGQGTTVTVSS
VL: DIQMTQSPSTLSASVGDRVTITCSASSSVGYMHWYQQKPGKAPKLLIYDTFKLTSGVPSRFSGSGSGTEFTLTISSLQPDDFATYYCFQGSGYPFTFGGGTKVEIK
In the case of B17, the “EC50 (nM), RSV microneutralization” value in experiment [2] was found to be 2.26 nM. Further, in experiment [3], the koff was 0.000326 s⁻¹ and the kon was 365000 M⁻¹ s⁻¹.

B18: Clone 4 (Fab) (Fab, V domains shown)
VH: QVTLRESGPALVKPTQTLTLTCTFSGFSLSTAGMSVGWIRQPPGKALEWLADIWWDDKKDYNPSLKSRLTISKDTSKNQVVLKVTNMDPADTATYYCARDMIFNWYFDVWGQGTTVTVSS
VL: DIQMTQSPSTLSASVGDRVTITCSASSSVGYMHWYQQKPGKAPKLLIYDTRYLSSGVPSRFSGSGSGTEFTLTISSLQPDDFATYYCFQGSGYPFTFGGGTKVEIK
notes: also called H3-3F4
For B18, the “EC50 (nM), RSV microneutralization” value in experiment [2] was determined as 3.55 nM. In addition, in experiment [3], the koff amounted to 0.000462 s⁻¹ and the kon came to 757000 M⁻¹ s⁻¹.
